The test system of the data set is PHA synthesizing enzyme. Put plainly: Activity of purified PHA synthesizing enzyme (released CoA coloured with 5,5'-dithiobis-(2-nitrobenzoic acid), absorbance at 412 nm). In kind it is biochemical, Pseudomonas cichorii YN2. The conditions noted are these: for Activity: 1 U = amount of enzyme releasing 1 μmol CoA per minute, substrate 3-hydroxyoctanoyl CoA, 30° C.; for Specific Activity: protein by Micro BCA. The source says:
A various kinds of reported methods may be used for measuring activity of the PHA synthesizing enzyme, and for example, the activity may be measured by the following method in which as a measurement principle, CoA released in the process through which 3-hydroxyacyl CoA is polymerized under the catalytic action of the PHA synthesizing enzyme to form PHA is colored with 5,5′-dithiobis-(2-nitrobenzoic acid) to carry out measurements. Reagent 1: bovine serum albumin (manufactured by Sigma Co., Ltd.) is dissolved in a 0.1 M Tris hydrochloric buffer (pH 8.0) in the concentration of 3.0 mg/ml, Reagent 2: 3-hydroxyoctanoyl CoA is dissolved in a 0.1 M Tris hydrochloric buffer (pH 8.0) in the concentration of 3.0 mM, Reagent 3: trichloroacetic acid is dissolved in a 0.1 M Tris hydrochloric buffer (pH 8.0) in the concentration of 10 mg/ml, and Reagent 4: 5,5′-dithiobis-(2-nitrobenzoic acid) is dissolved in a 0.1 M Tris hydrochloric buffer (pH 8.0) in the concentration of 2.0 mM. First reaction (PHA synthesis reaction): 100 μl of Reagent 1 is added in 100 μl of sample (enzyme) solution and mixed together, and is pre-incubated at 30° C. for a minute. 100 μl of Reagent 2 is added thereto and mixed together, and is incubated at 30° C. for 1 to 30 minutes, followed by adding thereto Reagent 3 to stop the reaction. Second reaction (reaction of coloring free CoA): the first reaction solution of which reaction has been stopped is subjected to centrifugation (15,000×g, 10 minutes), and 500 μl of Reagent 4 is added in 500 μl of supernatant liquid of this solution, and is incubated at 30° C. for 10 minutes, followed by measuring an absorbance at 412 nm. Calculation of enzyme activity: the amount of enzyme for releasing 1 μmol of CoA per minute is defined as one unit (U).
The activity of each purified enzyme was measured by the aforesaid method. Also, the concentrations of proteins in the sample were measured by the Micro BCA protein quantification reagent kit (Pierce Chemical Co., Ltd.).

B1: YN2-C1: Purified PHA synthase derived from Pseudomonas cichorii YN2, from plasmid pYN2-C1 (SEQ ID NO: 2), 60.8 kDa (protein)
chain: MSNKSNDELKYQASENTLGLNPVVGLRGKDLLASARMVLRQAIKQPVHSVKHVAHFGLELKNVLLGKSGLQPTSDDRRFADPAWSQNPLYKRYLQTYLAWRKELHDWIDESNLAPKDVARGHFVINLMTEAMAPTNTAANPAAVKRFFETGGKSLLDGLSHLAKDLVHNGGMPSQVNMGAFEVGKSLGVTEGAVVFRNDVLELIQYKPTTEQVYERPLLVVPPQINKFYVFDLSPDKSLARFCLRNNVQTFIVSWRNPTKEQREWGLSTYIEALKEAVDVVTAITGSKDVNMLGACSGGITCTALLGHYAAIGENKVNALTLLVSVLDTTLDSDVALFVNEQTLEAAKRHSYQAGVLEGRDMAKVFAWMRPNDLIWNYWVNNYLLGNEPPVFDILFWNNDTTRLPAAFHGDLIELFKNNPLIRPNALEVCGTPIDLKQVTADIFSLAGTNDHITPWKSCYKSAQLFGGNVEFVLSSSGHIQSILNPPGNPKSRYMTSTEVAENADEWQANATKHTDSWWLHWQAWQAQRSGELKKSPTKLGSKAYPAGEAAPGTYVHER
modifications: Pseudomonas cichorii YN2 ; FERM BP-7375
For B1, the Activity was 2.1 U/mL and the “Specific Activity” value is 4.1 U/mg Protein.

B2: YN2-C2: Purified PHA synthase derived from Pseudomonas cichorii YN2, from plasmid pYN2-C2 (SEQ ID NO: 4), 61.5 kDa (protein)
chain: MRDKPARESLPTPAKFINAQSAITGLRGRDLVSTLRSVAAHGLRHPVHTARHALKLGGQLGRVLLGDTLHPTNPQDRRFDDPAWSLNPFYRRSLQAYLSWQKQVKSWIDESNMSPDDRARAHFAFALLNDAVSPSNSLLNPLAIKEIFNSGGNSLVRGIGHLVDDLLHNDGLPRQVTRHAFEVGKTVATTTGAVVFRNELLELIQYKPMSEKQYSKPLLVVPPQINKYYIFDLSPHNSFVQFALKNGLQTFVISWRNPDVRHREWGLSTYVEAVEEAMNVCRAITGAREVNLMGACAGGLTIAALQGHLQAKRQLRRVSSATYLVSLLDSQLDSPATLFADEQTLEAAKRRSYQKGVLEGRDMAKVFAWMRPNDLIWSYFVNNYLMGKEPPAFDILYWNNDNTRLPAALHGDLLDFFKHNPLSHPGGLEVCGTPIDLQKVTVDSFSVAGINDHITPWDAVYRSTLLLGGERRFVLANSGHVQSILNPPNNPKANYLEGAKLSSDPRAWYYDAKPVDGSWWTQWLGWIQERSGAQKETHMALGNQNYPPMEAAPGTYVRVR
modifications: Pseudomonas cichorii YN2 ; FERM BP-7375
With B2, the Activity came out at 1.5 U/mL and the “Specific Activity” value stood at 3.6 U/mg Protein.

The record behind these values is patent US7186459B2, “Liposome coated with polyhydroxyalkanoate and production method thereof” (priority 2001, dated 2007).
